This note sets out measurements from patent US20060252116A1 (published 2006).

Ends that are not written are not given here.

The target of experiment [1] is T1, αv integrins (as found on HT1080 cells) (UniProt P06756 31-1048).
T1 construct: whole, on cells; also called αv integrin ligand
Kind of experiment: HT1080 cell adhesion to coated human ICAM-4Fc (5 ug/ml), peptide 750 uM; competitor human ICAM-4Fc. On the procedure:
(§1) Human ICAM-4Fc was coated at a concentration of 5 μg/ml, peptides were used at 750 μM final concentration for each peptide, and each data point is the mean of two independent assays.
(§2) Cell adhesion assays were performed as described in Spring et al. 2001 (supra). Immulon4 96 well plates (Dynex Technologies, Billingshurst, United Kingdom) were coated with 1 μg/well goat-antihuman-Fc (Sigma, Poole, United Kingdom) for 24 hours at 4° C., washed three times with PBS and coated with an Fc fusion ICAM-4 protein for 18 hours at 4° C. before blocking with 0.4% BSA PBS for 2 hours at 22° C. Cells were labelled with 10 μg/ml 2′,7′-bis-(2-carboxyethyl)-5-(and-6-) carboxyfluorescein acetoxymethyl ester in assay buffer (IMEM, 2 mM EGTA, 10 μg/ml human ivIgG) for 15 minutes at 37° C. HT1080 cells were activated with 80 μM phorbol myristate acetate prior to both cells being washed with assay buffer containing 2 mM Mn²⁺. Cells, at 5×10⁴ cells per well, were added to the ICAM-4Fc-coated plates for 30 minutes at 37° C., prior to being given repeated washes in assay buffer and read on a fluorescence microplate reader (excitation 485 nm, emission 530 nm). The percentage of bound cells was calculated after each wash. Peptide inhibition was performed by incubating the cells with 500 μM peptide at 0° C. for 15 minutes ahead of their addition, still in the presence of 500 μM peptide to the ICAM-4Fc coated plates. In peptide inhibition studies the appropriate ICAM-4Fc coating concentration for each cell line was pre-determined by titration of ICAM-4Fc and the lowest concentration at which maximal binding was achieved was used to coat the plates

Experiment [2] deals with T1, αv integrins (as found on HT1080 cells). Kind of experiment: HT1080 cell adhesion to coated human ICAM-4Fc (7.5 ug/ml), peptide 500 uM; competitor human ICAM-4Fc. How it is done: FIG. 10. […] Human ICAM-4Fc was coated at a concentration of 7.5 μg/ml, peptides were used at 500 μM final concentration for each peptide, and each data point is the mean of three independent assays.
as §2, with “plates.” for “plates. In peptide inhibition studies the appropriate ICAM-4Fc coating concentration for each cell line was pre-determined by titration of ICAM-4Fc and the lowest concentration at which maximal binding was achieved was used to coat the plates”

The target is the same in experiment [3]. Kind of experiment: HT1080 cell adhesion to coated murine ICAM-4Fc (5 ug/ml), peptide 500 uM; competitor murine ICAM-4Fc. How it is done:
FIG. 14. […] Murine ICAM-4Fc was coated at a concentration of 5 μg/ml, peptides were used at 500 μM final concentration for each peptide, and each data point is the mean of two independent assays.
as §2, with “plates.” for “plates. In peptide inhibition studies the appropriate ICAM-4Fc coating concentration for each cell line was pre-determined by titration of ICAM-4Fc and the lowest concentration at which maximal binding was achieved was used to coat the plates”

Experiment [4] shares this target. Kind of experiment: HT1080 cell adhesion to coated human ICAM-4Fc (5 ug/ml); value is for the MIXTURE of SEQ ID NO: 9, 10 and 11, each peptide 750 uM. How it is done:
as §1, §2

The target is the same in experiment [5]. In words: HT1080 cell adhesion to coated human ICAM-4Fc (5 ug/ml); value is for the MIXTURE with control peptide SEQ ID NO: 13, each peptide 750 uM. On the procedure:
as §1, §2

Another experiment has as its target T2, αLβ2 integrin (UniProt P20701 26-1170; P05107 23-769).
T2 construct: whole, on cells; also called LFA-1; β2 integrins
In words: neutrophil adhesion to coated ICAM-4Fc with blocking integrin antibodies. On the procedure: (§3) Utilising blocking β integrin subunit antibodies and our blocking ICAM-4 peptides (i.e., SEQ ID NOs: 9, 10, 11 and 13—see Example 1) in a microplate neutrophil adhesion assay. Neutrophils were purified from buffy coats (obtained from the National Blood Service, Bristol, UK) as described in Henderson et al. (1987, Biochem. J. 246: 325-329). Cell adhesion assays were performed as described in Example 1 above. […] Neutrophils were labelled with 10 μg/ml 2′,7′-bis-(2-carboxyethyl)-5-(and-6-)carboxyfluorescein acetoxymethyl ester (Sigma, Poole, UK) in assay buffer (Iscoves modified Eagle medium, 2 mM EGTA, 0.1% BSA for 15 minutes at 37° C. Neutrophils were washed with assay buffer containing 2 mM Mn²⁺. Neutrophils, at 5×10⁵ cells per well, were added to the ICAM-4Fc-coated plates for 10 minutes at 37° C., prior to being cyclically read on a fluorescence microplate reader (excitation 485 nm, emission 530 nm) and washed in assay buffer. The percentage of bound cells was calculated after each wash. Peptide and antibody inhibition was performed by incubating the cells with 500 μM peptide and 25 μg/ml antibody at 0° C. for 15 minutes before their addition to the ICAM-4 Fc coated plates. […]

The target of another experiment is αMβ2 integrin (UniProt P11215 17-1152; P05107 23-769). The experiment is described as above. How it is done:
as §3

T1 sequence (P06756 31-1048): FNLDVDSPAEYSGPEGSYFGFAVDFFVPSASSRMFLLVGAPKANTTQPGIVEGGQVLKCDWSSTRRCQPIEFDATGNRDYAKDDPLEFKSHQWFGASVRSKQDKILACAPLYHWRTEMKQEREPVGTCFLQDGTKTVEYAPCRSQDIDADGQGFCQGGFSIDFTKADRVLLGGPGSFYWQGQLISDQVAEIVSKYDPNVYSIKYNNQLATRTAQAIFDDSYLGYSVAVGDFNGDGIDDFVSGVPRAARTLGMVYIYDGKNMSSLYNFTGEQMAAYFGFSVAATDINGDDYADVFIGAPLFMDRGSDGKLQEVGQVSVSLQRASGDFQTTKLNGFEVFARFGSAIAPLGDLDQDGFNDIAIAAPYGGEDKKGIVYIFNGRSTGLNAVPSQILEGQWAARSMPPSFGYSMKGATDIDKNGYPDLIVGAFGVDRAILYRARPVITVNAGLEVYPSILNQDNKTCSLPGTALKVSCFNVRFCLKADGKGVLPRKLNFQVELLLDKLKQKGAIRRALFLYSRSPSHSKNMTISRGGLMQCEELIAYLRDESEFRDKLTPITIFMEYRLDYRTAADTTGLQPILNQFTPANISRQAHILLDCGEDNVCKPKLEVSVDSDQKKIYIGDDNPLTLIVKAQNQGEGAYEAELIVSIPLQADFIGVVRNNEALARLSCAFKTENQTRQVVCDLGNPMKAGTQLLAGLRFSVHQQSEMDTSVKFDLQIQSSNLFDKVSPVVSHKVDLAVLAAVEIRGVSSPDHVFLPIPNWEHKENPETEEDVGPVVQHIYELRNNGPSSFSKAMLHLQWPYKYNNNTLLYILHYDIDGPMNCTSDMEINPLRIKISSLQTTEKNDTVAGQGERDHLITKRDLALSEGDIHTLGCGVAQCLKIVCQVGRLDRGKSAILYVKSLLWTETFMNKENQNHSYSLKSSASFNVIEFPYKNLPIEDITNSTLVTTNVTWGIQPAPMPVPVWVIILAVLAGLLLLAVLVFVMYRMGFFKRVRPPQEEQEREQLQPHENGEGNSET

B1: tRwATSRit peptide (SEQ ID NO: 10) (peptide)
peptide: TRWATSRIT
modifications: not fully specified (residues 1, 3, 8, 9)
notes: Nine residues of the G strand of domain 1 of mature human ICAM-4, starting at T91; also called G strand peptide
In the case of B1, the “input cells bound as % of binding to ICAM-4Fc in the absence of peptides” value was found to be 42% in experiment [1], 60% in experiment [2], 52% in experiment [4] and 39% in experiment [5]. Moreover, the “input cells bound as % of binding to murine ICAM-4Fc in the absence of peptides” value in experiment [3] amounted to 80%.

B2: aWssLahcl peptide (SEQ ID NO: 11) (peptide)
peptide: AWSSLAHCL
notes: Nine residues of the F strand of domain 1 of mature human ICAM-4, starting at A76; also called F strand peptide
Regarding B2, the “input cells bound as % of binding to ICAM-4Fc in the absence of peptides” value came to 71% in experiment [1], 52% in experiment [4] and 64% in experiment [5].

B3: human ICAM-4Fc (Fc fusion)
chain: AQSPKGSPLAPSGTSVPFWVRMSPEFVAVQPGKSVQLNCSNSCPQPQNSSLRTPLRQGKTLRGPGWVSYQLLDVRAWSSLAHCLVTCAGKTRWATSRITAYKPPHSVILEPPVLKGRKYTLRCHVTQVFPVGYLVVTLRHGSRVIYSESLERFTGLDLANVTLTYEFAAGPRDFWQPVICHARLNLDGLVVRNSSAPITLMLAWSPAPTA
notes: Expressed in COS-7 cells, purified on protein A; also called Fc fusion ICAM-4 protein; wild-type ICAM-4Fc; not shown: Fc part from the pIg vector
Take B3: the binding result in the experiment with αLβ2 integrin and with αMβ2 integrin was “binds” in each case.

B4: rqgktlrgp peptide (SEQ ID NO: 13) (peptide)
peptide: RQGKTLRGP
notes: Control peptide; nine residues of the D strand of domain 1 of mature human ICAM-4, starting at R56; also called D strand peptide
Take B4: the “input cells bound as % of binding to ICAM-4Fc in the absence of peptides” value was 96% in experiment [1] and 97% in experiment [2]. The “input cells bound as % of binding to murine ICAM-4Fc in the absence of peptides” value in experiment [3] was found to be 92%.

B5: svpFWVrms peptide (SEQ ID NO: 9) (peptide)
peptide: SVPFWVRMS
notes: Nine residues of the A strand of domain 1 of mature human ICAM-4, starting at S15; also called A strand peptide
For the molecule B5, the “input cells bound as % of binding to ICAM-4Fc in the absence of peptides” value came out at 41% in experiment [1], 46% in experiment [2], 52% in experiment [4] and 40% in experiment [5]. In experiment [3], the “input cells bound as % of binding to murine ICAM-4Fc in the absence of peptides” value was determined as 60%.
